According to patent US5795721:

Target: T1, FP505 (ICP4 residues 210-490 DNA-binding/dimerization domain fusion) (Herpes simplex virus 1) (UniProt P08392)
T1 sequence: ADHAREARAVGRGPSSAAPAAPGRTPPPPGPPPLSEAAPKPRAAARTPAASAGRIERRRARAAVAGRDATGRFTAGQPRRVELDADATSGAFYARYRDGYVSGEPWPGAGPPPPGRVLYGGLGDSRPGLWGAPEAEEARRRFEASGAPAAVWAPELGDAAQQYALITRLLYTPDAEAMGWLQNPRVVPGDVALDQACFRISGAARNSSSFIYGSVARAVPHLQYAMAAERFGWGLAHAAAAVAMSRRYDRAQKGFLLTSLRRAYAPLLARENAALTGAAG
Assay: filter

ICP0 promoter duplex 200mer
Kd (without tRNA, >1 uM with tRNA excess): 0.5 nM

GGGAGACAAGAAUAAACGCUCAANNNNNNNNNNNNNNNNNNNNNNNNNNNNNNNNNNNNNNNNUUCGACAGGAGGCUCACAACAGGC [random RNA pool]
Kd (random pool): > 100 nM

GGGAGGACAGTGCGGNNNNNNNNNNNNNNNNNNNNNNNNNNNNNNNNNNNNNNNNCAGTGCGTCAGTCAAC [random ssDNA pool]
Kd (with tRNA, >11 nM without tRNA): > 160 nM
